Patent US20170240920A1 (UCL BUSINESS, published 2017)
No end group written: not given here.

Target: T1, Streptavidin (Streptomyces avidinii, UniProt P22629 37-163, limits assumed)
T1 construct: The same protein was used as APC conjugate (flow cytometry) and on beads (sorting, virus capture); also called Streptavidin-APC; Streptavidin conjugated to Allophycocyanin
Assay: flow cytometry, Streptavidin-APC staining of transfected 293T cells

T1 sequence (P22629 37-163 limits assumed): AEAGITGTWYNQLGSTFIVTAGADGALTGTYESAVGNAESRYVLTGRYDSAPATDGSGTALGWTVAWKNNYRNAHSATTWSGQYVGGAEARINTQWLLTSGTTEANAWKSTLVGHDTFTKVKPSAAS

Binder | binding result
ECHPQGPPCIEGRKSSGGGGSPAPRPPTPAPTIASECHPQGPPCIEGRKS (other, cysteine pairing not given here; also: GPI anchor at C-terminal side, attached after further residues not given here, Two copies of the tag separated by a CD8-based linker; also called MP13024; Flankedccstreptag GPI (x2); not shown: residues between the second tag and the GPI attachment site) [Flankedccstreptag-d8-x2-GPI] | binds
WSHPQFEKSGGGGSPAPRPPTPAPTIASWSHPQFEK (other, also: GPI anchor at C-terminal side, attached after further residues not given here, Two copies of the tag separated by a CD8-based linker; expressed on the surface of transfected HEK 293T cells; also called StreptagII GPI (x2); Streptagll-d8-x2; not shown: residues between the second tag and the GPI attachment site) [StreptagII-d8-x2 on a GPI anchor] | binds
